In publication doi:10.1101/2021.05.19.444834v1 (bioRxiv, 2021):

Tests used:
[1] = system: ThfB and ThfM; test: In vitro reconstitution with ThfB and ThfM together; type: biochemical, Thermobifida fusca; details: 10 μM ThfA, 1 μM ThfB, 1 μM ThfM, 0.4 mM SAM, ATP, no KCl, 37 °C; 5 h; LC-MS
[2] = system: O-methyltransferase ThfM; test: In vitro aspartimide formation by ThfM alone; type: biochemical, Thermobifida fusca; details: 10 μM substrate, 1 μM ThfM, 0.4 mM SAM, 100 mM sodium phosphate, 37 °C; LC-MS

modification by ThfM alone [2]: no reaction
Substance: ThfA
conversion to triply dehydrated product [1]: ~ 75%
